Values quoted from earlier work as cited in publication PMC4786785.

Target: Nterm1 (UniProt position 2, ----MPIAQIH)
Conditions: not stated (wild-type enzyme, described in the context of the natural tautomerase mechanism)

For “4-oxalocrotonate tautomerase (4-OT) (Pseudomonas putida mt-2)”, the pKa is given as “≈6.4”.
